Each block holds one binder with its values, some of them ahead of it.
Legend:
[1] = molecular target: T1, cynomolgus monkey FcγRIIIaS extracellular domain with C-terminal His-tag (cynomolgus monkey, UniProt Q8SPW2 21-206 at identity 1.00)); test: SPR, KD(SG1)/KD(variant)
T1 construct: also called cyno FcgRIIIaS; cynoFcγRIIIaS
T1 chain: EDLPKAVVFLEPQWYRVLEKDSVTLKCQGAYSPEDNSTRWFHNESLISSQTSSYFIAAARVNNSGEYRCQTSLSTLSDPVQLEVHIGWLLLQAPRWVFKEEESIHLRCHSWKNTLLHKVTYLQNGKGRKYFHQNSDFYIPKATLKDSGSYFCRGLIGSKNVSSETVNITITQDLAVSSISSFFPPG
Method: (§1) The kinetic analysis of interactions between these antibodies and FcγR was carried out using BIACORE® T200 or BIACORE® 4000 (GE Healthcare). HBS-EP+ (GE Healthcare) was used as the running buffer, and the measurement temperature was set to 25° C. […] After the measurement, the antibody captured on the chip was washed off by allowing reaction with 10 mM glycine-HCl, pH1.5 and 25 mM NaOH so that the chip was regenerated and used repeatedly. The sensorgrams obtained as measurement results were analyzed by the 1:1 Langmuir binding model using the BIACORE® Evaluation Software to calculate the binding rate constant ka (L/mol/s) and dissociation rate constant kd (1/s), and the dissociation constant KD (mol/L) was calculated from these values. […] Regarding such interactions, KD values were calculated using the following 1:1 binding model described in BIACORE® T100 Software Handbook BR1006-48 Edition AE.

[2] = molecular target: T1, cynomolgus monkey FcγRIIIaS …; test: SPR, antibody captured, FcγR analyte
Method: as §1

[3] = molecular target: T2, human FcγRIIb extracellular domain, His-tagged (human, UniProt P31994 43-217); test: SPR Biacore, antibody captured, FcgR analyte
T2 construct: also called FcgRIIb (human); not shown: C-terminal His-tag
T2 sequence: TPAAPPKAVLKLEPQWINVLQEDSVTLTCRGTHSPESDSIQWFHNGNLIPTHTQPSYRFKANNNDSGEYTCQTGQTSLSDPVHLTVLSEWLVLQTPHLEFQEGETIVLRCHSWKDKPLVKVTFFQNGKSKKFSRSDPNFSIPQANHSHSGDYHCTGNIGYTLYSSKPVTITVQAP

[4] = molecular target: T3, cynomolgus monkey FcγRIIa3 extracellular domain, His-tagged (cynomolgus monkey); test: SPR Biacore, KD(SG1)/KD(variant)
T3 construct: also called cyno FcγRIIa3; cynoFcgRIIa3; not shown: C-terminal His-tag
T3 chain: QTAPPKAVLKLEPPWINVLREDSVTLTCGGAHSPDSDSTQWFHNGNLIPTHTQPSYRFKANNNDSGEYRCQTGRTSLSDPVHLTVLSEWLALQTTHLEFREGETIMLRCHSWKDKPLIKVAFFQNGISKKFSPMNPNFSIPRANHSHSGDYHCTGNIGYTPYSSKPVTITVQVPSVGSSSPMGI
Method: as §1

[5] = molecular target: T2, human FcγRIIb extracellular domain, …; test: SPR Biacore, KD(SG1)/KD(variant)
Method: as §1

[6] = molecular target: T4, cynomolgus monkey FcγRIIa1 extracellular domain with C-terminal His-tag (cynomolgus monkey); test: SPR (Biacore), antibody captured, FcgR as analyte
T4 construct: also called cyno FcgRIIa1; cynoFcγRIIa1
T4 chain: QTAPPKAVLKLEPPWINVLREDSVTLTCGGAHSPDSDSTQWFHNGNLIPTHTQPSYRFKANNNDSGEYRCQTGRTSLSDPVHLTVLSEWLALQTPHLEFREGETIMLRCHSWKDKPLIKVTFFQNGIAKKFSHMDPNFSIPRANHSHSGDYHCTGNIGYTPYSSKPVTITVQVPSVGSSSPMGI
Method: as §1

[7] = molecular target: T5, human FcγRIIIaV extracellular domain with C-terminal His-tag (human, UniProt P08637 17-208); test: SPR (Biacore), antibody captured, FcgR as analyte
T5 construct: also called human FcgRIIIaV
T5 sequence (P08637 17-208 F176V): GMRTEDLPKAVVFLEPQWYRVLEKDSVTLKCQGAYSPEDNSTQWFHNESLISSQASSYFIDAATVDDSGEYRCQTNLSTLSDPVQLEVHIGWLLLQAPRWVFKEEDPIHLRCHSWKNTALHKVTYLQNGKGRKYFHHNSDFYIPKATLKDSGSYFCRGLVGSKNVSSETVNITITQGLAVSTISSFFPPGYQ
Method: as §1

[8] = molecular target: T6, cynomolgus monkey FcγRIIa1 extracellular domain, His-tagged (cynomolgus monkey); test: SPR Biacore, antibody captured, FcgR analyte
T6 construct: also called cyno FcγRIIa1; cynoFcgRIIa1; not shown: C-terminal His-tag
T6 chain: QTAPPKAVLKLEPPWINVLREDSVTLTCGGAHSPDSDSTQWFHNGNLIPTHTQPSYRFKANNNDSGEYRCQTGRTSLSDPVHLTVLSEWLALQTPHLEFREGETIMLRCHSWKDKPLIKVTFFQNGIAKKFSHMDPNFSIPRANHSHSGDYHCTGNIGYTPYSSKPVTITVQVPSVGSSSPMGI

[9] = molecular target: T7, human FcγRIIaR extracellular domain, His-tagged (human, UniProt P12318 34-217); test: SPR Biacore, KD(SG1)/KD(variant)
T7 construct: also called human FcγRIIa (type R); FcgRIIaR; not shown: C-terminal His-tag
T7 chain: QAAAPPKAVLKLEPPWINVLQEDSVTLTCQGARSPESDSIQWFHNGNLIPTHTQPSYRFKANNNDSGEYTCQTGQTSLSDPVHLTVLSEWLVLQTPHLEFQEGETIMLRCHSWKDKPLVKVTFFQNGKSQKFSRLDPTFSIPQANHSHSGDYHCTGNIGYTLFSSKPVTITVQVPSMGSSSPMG
Method: as §1

Kd [6]: 1200 nM
Kd [7]: 2700 nM
B4: M103205H795-MY536 / M103202L889-SK1 (antibody, human IgG1, kappa, name in EU numbering)
heavy: QVTLKESGPVLVKPTETLTLTCTVSGIDLSHDDISWVRQAPGKGLEWVGIISYAGSTYYASWAKGRLTISKDTSKNQVVLTMTNMDPVDTATYYCARGVPAYSHGGDLWGQGTLVTVSSASTKGPSVFPLAPSSKSTSGGTAALGCLVKDYFPEPVTVSWNSGALTSGVHTFPAVLQSSGLYSLSSVVTVPSSSLGTQTYICNVNHKPSNTKVDKKVEPKSCDKTHTCPPCPGPEWLTGPVVFLFPPKPKDTLMISRTPEVTCVVVDVSDEDPEVKFNWYVDGVEVHNAKTKPREEQYNSTYRVVSVLTVLHQDWLNGKEYKCKVSNKALPKPIEKTISKAKGQPREPQVYTLPPSREEMTKNQVSLTCLVKGFYPSDIAVEWESNGQPENNYKTTPPVLDSDGSFFLYSKLTVDKSRWQQGNVFSCSVMHEALHNHYTQKSLSLSP
light: DIVMTQSPATLSLSPGERATLSCTSSQSVYHANWLSWFQQKPGQPPKLLIYWASTLAYGVPSRFSGSGSGTDFTLTISSLQPEDAATYYCAGGYGGGRYAFGQGTKVEIKRTVAAPSVFIFPPSDEQLKSGTASVVCLLNNFYPREAKVQWKVDNALQSGNSQESVTEQDSKDSTYSLSSTLTLSKADYEKHKVYACEVTHQGLSSPVTKSFNRGEC

KD fold (SG1 = 1) [1]: 0.07 fold
Kd [2]: 4.9 µM
B6: MS1032LO06-MY344 (antibody, human IgG1, kappa)
heavy: QVTLKESGPVLVKPTETLTLTCTVSGIDLSHDDISWVRQAPGKGLEWVGIISYAGSTYYASWAKGRLTISKDTSKNQVVLTMTNMDPVDTATYYCARGVPAYSHGGDLWGQGTLVTVSSASTKGPSVFPLAPSSKSTSGGTAALGCLVKDYFPEPVTVSWNSGALTSGVHTFPAVLQSSGLYSLSSVVTVPSSSLGTQTYICNVNHKPSNTKVDKKVEPKSCDKTHTCPPCPAPELLNGPSVFLFPPKPKDTLMISRTPEVTCVVVDVSDEDPEVKFNWYVDGVEVHNAKTKPREELYNSTYRVVSVLTVLHRDWLNGKEYKCKVSNKALPKPIEKTISKAKGQPREPQVYTLPPSREEMTKNQVSLTCLVKGFYPSDIAVEWESNGQPENNYKTTPPVLDSDGSFFLYSKLTVKKSRWQQGNVFSCSVMHEALHNHYTQKSLSLSP
light: DIVMTQSPATLSLSPGERATLSCTSSQSVYHANWLSWFQQKPGQPPKLLIYWASTLAYGVPSRFSGSGSGTDFTLTISSLQPEDAATYYCAGGYGGGRYAFGQGTKVEIKRTVAAPSVFIFPPSDEQLKSGTASVVCLLNNFYPREAKVQWKVDNALQSGNSQESVTEQDSKDSTYSLSSTLTLSKADYEKHKVYACEVTHQGLSSPVTKSFNRGEC
notes: also called M103205H795-MY344; copies: 2 + 2

Kd [3]: 3.2 µM
B8: M103205H795-MY196/M103202L889-SK1 (antibody, human IgG1, kappa, name in EU numbering)
heavy: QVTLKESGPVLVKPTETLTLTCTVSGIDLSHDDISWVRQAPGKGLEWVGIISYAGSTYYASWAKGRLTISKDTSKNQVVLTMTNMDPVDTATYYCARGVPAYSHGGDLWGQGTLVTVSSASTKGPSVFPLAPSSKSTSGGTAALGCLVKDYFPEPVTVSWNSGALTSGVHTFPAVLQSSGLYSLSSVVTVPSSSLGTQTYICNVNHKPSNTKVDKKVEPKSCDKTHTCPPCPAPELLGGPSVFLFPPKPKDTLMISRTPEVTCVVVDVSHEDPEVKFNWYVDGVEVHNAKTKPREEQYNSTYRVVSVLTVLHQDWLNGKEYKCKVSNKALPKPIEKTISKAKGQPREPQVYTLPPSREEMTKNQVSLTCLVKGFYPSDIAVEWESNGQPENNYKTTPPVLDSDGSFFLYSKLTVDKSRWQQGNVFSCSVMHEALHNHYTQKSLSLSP
light: DIVMTQSPATLSLSPGERATLSCTSSQSVYHANWLSWFQQKPGQPPKLLIYWASTLAYGVPSRFSGSGSGTDFTLTISSLQPEDAATYYCAGGYGGGRYAFGQGTKVEIKRTVAAPSVFIFPPSDEQLKSGTASVVCLLNNFYPREAKVQWKVDNALQSGNSQESVTEQDSKDSTYSLSSTLTLSKADYEKHKVYACEVTHQGLSSPVTKSFNRGEC
notes: Substitution introduced into M103205H795-SG1; EU numbering

Further lines, the binder ahead of its results:

B1: MS1032LO06-MY335 (antibody, human IgG1, kappa)
heavy: QVTLKESGPVLVKPTETLTLTCTVSGIDLSHDDISWVRQAPGKGLEWVGIISYAGSTYYASWAKGRLTISKDTSKNQVVLTMTNMDPVDTATYYCARGVPAYSHGGDLWGQGTLVTVSSASTKGPSVFPLAPSSKSTSGGTAALGCLVKDYFPEPVTVSWNSGALTSGVHTFPAVLQSSGLYSLSSVVTVPSSSLGTQTYICNVNHKPSNTKVDKKVEPKSCDKTHTCPPCPAPELLTGPSVFLFPPKPKDTLMISRTPEVTCVVVDVSDEDPEVKFNWYVDGVEVHNAKTKPREEQYNSTYRVVSVLTVLHRDWLNGKEYKCKVSNKALPKPIEKTISKAKGQPREPQVYTLPPSREEMTKNQVSLTCLVKGFYPSDIAVEWESNGQPENNYKTTPPVLDSDGSFFLYSKLTVKKSRWQQGNVFSCSVMHEALHNHYTQKSLSLSP
light: DIVMTQSPATLSLSPGERATLSCTSSQSVYHANWLSWFQQKPGQPPKLLIYWASTLAYGVPSRFSGSGSGTDFTLTISSLQPEDAATYYCAGGYGGGRYAFGQGTKVEIKRTVAAPSVFIFPPSDEQLKSGTASVVCLLNNFYPREAKVQWKVDNALQSGNSQESVTEQDSKDSTYSLSSTLTLSKADYEKHKVYACEVTHQGLSSPVTKSFNRGEC
notes: also called M103205H795-MY335; copies: 2 + 2
KD fold (SG1 = 1) [1]: 0.24 fold
Kd [2]: 1.5 µM

B2: MS1032LO06-PK2 (antibody, human IgG1, kappa)
heavy: QVTLKESGPVLVKPTETLTLTCTVSGIDLSHDDISWVRQAPGKGLEWVGIISYAGSTYYASWAKGRLTISKDTSKNQVVLTMTNMDPVDTATYYCARGVPAYSHGGDLWGQGTLVTVSSASTKGPSVFPLAPSSKSTSGGTAALGCLVKDYFPEPVTVSWNSGALTSGVHTFPAVLQSSGLYSLSSVVTVPSSSLGTQTYICNVNHKPSNTKVDKKVEPKSCDKTHTCPPCPAPELLNGPSVFLFPPKPKDTLMISRTPEVTCVVVDVSEEDPEVKFNWYVDGVEVHNAKTKPREEQYNSTYRVVSVLTVLHQDWLNGKEYKCKVSNKALPKPIEKTISKAKGQPREPQVYTLPPSREEMTKNQVSLTCLVKGFYPSDIAVEWESNGQPENNYKTTPMVLDRDGSFFLYSKLTVKKSRWQQGNVFSCSVMHEALHNHYTQKSLSLSP
light: DIVMTQSPATLSLSPGERATLSCTSSQSVYHANWLSWFQQKPGQPPKLLIYWASTLAYGVPSRFSGSGSGTDFTLTISSLQPEDAATYYCAGGYGGGRYAFGQGTKVEIKRTVAAPSVFIFPPSDEQLKSGTASVVCLLNNFYPREAKVQWKVDNALQSGNSQESVTEQDSKDSTYSLSSTLTLSKADYEKHKVYACEVTHQGLSSPVTKSFNRGEC
notes: also called M103205H795-PK2; copies: 2 + 2
KD fold (SG1 = 1) [1]: 0.09 fold
Kd [2]: 3.9 µM

B3: M103205H795-MY071/M103202L889-SK1 (antibody, human IgG1, kappa, name in EU numbering)
heavy: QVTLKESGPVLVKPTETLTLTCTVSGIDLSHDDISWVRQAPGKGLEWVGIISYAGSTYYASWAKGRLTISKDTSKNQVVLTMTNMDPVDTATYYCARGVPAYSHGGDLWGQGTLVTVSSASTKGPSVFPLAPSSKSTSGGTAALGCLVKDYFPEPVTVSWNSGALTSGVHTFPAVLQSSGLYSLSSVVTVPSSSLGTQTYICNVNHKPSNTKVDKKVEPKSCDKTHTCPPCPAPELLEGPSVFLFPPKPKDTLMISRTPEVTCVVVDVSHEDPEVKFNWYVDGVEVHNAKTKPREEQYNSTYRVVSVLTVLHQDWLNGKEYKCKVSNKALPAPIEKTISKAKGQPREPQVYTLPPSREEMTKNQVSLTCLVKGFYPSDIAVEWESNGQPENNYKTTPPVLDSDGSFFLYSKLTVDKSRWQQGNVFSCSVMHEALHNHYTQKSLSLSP
light: DIVMTQSPATLSLSPGERATLSCTSSQSVYHANWLSWFQQKPGQPPKLLIYWASTLAYGVPSRFSGSGSGTDFTLTISSLQPEDAATYYCAGGYGGGRYAFGQGTKVEIKRTVAAPSVFIFPPSDEQLKSGTASVVCLLNNFYPREAKVQWKVDNALQSGNSQESVTEQDSKDSTYSLSSTLTLSKADYEKHKVYACEVTHQGLSSPVTKSFNRGEC
notes: as for B8
Kd [3]: 3.1 µM
KD fold (SG1 = 1) [4]: 1.8 fold
KD fold (SG1 = 1) [5]: 1.5 fold

B5: M103205H795-MY042/M103202L889-SK1 (antibody, human IgG1, kappa, name in EU numbering)
heavy: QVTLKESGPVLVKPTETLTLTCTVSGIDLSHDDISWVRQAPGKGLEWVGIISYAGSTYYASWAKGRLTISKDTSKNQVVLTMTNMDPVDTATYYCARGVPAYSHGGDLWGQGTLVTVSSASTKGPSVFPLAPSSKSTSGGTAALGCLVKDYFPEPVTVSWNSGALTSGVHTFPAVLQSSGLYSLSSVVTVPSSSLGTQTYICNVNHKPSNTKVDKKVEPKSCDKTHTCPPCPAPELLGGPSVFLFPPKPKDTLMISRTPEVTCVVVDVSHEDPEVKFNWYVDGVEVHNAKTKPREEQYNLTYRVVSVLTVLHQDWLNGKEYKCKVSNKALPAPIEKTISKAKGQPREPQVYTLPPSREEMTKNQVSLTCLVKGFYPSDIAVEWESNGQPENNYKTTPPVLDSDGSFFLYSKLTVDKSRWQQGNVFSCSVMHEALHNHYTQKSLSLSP
light: DIVMTQSPATLSLSPGERATLSCTSSQSVYHANWLSWFQQKPGQPPKLLIYWASTLAYGVPSRFSGSGSGTDFTLTISSLQPEDAATYYCAGGYGGGRYAFGQGTKVEIKRTVAAPSVFIFPPSDEQLKSGTASVVCLLNNFYPREAKVQWKVDNALQSGNSQESVTEQDSKDSTYSLSSTLTLSKADYEKHKVYACEVTHQGLSSPVTKSFNRGEC
notes: as for B8
Kd [8]: 0.51 µM

B7: M103205H795-MY040/M103202L889-SK1 (antibody, human IgG1, kappa, name in EU numbering)
heavy: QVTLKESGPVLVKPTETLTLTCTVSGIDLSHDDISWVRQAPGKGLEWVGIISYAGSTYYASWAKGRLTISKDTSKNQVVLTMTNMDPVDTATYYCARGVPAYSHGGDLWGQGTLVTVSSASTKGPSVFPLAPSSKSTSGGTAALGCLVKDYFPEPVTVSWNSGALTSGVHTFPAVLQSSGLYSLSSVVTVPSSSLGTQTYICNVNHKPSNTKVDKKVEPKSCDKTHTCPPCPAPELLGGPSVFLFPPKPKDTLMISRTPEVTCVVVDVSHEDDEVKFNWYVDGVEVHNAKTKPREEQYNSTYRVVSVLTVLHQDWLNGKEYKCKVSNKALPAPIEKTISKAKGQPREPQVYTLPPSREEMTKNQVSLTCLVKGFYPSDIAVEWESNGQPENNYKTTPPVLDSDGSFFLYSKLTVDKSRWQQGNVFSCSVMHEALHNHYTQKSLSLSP
light: DIVMTQSPATLSLSPGERATLSCTSSQSVYHANWLSWFQQKPGQPPKLLIYWASTLAYGVPSRFSGSGSGTDFTLTISSLQPEDAATYYCAGGYGGGRYAFGQGTKVEIKRTVAAPSVFIFPPSDEQLKSGTASVVCLLNNFYPREAKVQWKVDNALQSGNSQESVTEQDSKDSTYSLSSTLTLSKADYEKHKVYACEVTHQGLSSPVTKSFNRGEC
notes: as for B8
Kd [8]: 5.5 µM
KD fold (SG1 = 1) [9]: 0.9 fold
KD fold (SG1 = 1) [4]: 3.9 fold

Reference: patent US20250076311A1 (Chugai, published 2025)
